Laboratory results published in patent US20190091326A1.

Key:
[1] = biological target: A244-rgp120 grown in GnTI- cells (HIV-1 isolate A244); experiment: ELISA, mAb titrated on gp120, absorbance 492 nm; curve 495 (A244 gp120 GNTI-)
[2] = biological target: A244-rgp120 grown in kifunensine treated cells (HIV-1 isolate A244); experiment: ELISA, mAb titrated on gp120, absorbance 492 nm; curve 496 (A244 gp120 kif)
[3] = biological target: 1209 V1/V2/V3/C3 scaffold grown in kifunensine; experiment: ELISA, mAb titrated on scaffold, absorbance 492 nm; curve 509 (1209 kif)

Substance: PGT128 broadly neutralizing monoclonal antibody
- EC50 [1]: < 0.01 µg/mL
- EC50 [2]: < 0.01 µg/mL
- EC50 [3]: 0.09 µg/mL
